Measured values from patent US20250283871A1, “COMPOSITIONS AND METHODS FOR MODULATING THE INTERACTION BETWEEN SS18-SSX FUSION ONCOPROTEIN AND NUCLEOSOMES” (Dana-Farber Cancer Institute, Inc., priority 2020, published 2025).
Residue numbers refer to the chain shown, from its start. Numbers in names are those of the source.

B1: BCL7B: BAF complex subunit quantified in the IP MS (protein, UniProt Q9BQE9 1-202, looked up)
B-cell CLL/lymphoma 7 protein …: MSGRSVRAETRSRAKDDIKKVMAAIEKVRKWEKKWVTVGDTSLRIFKWVPVTDSKEKEKSKSNSSAAREPNGFPSDASANSSLLLEFQDENSNQSSVSDVYQLKVDSSTNSSPSPQQSESLSPAHTSDFRTDDSQPPTLGQEILEEPSLPSSEVADEPPTLTKEEPVPLETQVVEEEEDSGAPPLKRFCVDQPTVPQTASES
B2: WT RING1B: wild-type RING1B re-expressed in RING1A/1B-dKO cells (protein, UniProt Q99496 2-336, looked up)
E3 ubiquitin-protein ligase …: SQAVQTNGTQPLSKTWELSLYELQRTPQEAITDGLEIVVSPRSLHSELMCPICLDMLKNTMTTKECLHRFCADCIITALRSGNKECPTCRKKLVSKRSLRPDPNFDALISKIYPSRDEYEAHQERVLARINKHNNQQALSHSIEEGLKIQAMNRLQRGKKQQIENGSGAEDNGDSSHCSNASTHSNQEAGPSNKRTKTSDDSGLELDNNNAAMAIDPVMDGASEIELVFRPHPTLMEKDDSAQTRYIKTSGNATVDHLSKYLAVRLALEELRSKGESNQMNLDTASEKQYTIYIATASGQFTVLNGSFSLELVSEKYWKVNKPMELYYAPTKEHK
B3: I53A: widely-used RING1B I53A mutant (protein, UniProt Q99496 2-336, looked up, variant I53A)
E3 ubiquitin-protein ligase …: B2 E3 ubiquitin-protein ligase … with I52A
B4: I53A/D56K: RING1B point mutant disrupting the E2 binding interface (protein, UniProt Q99496 2-336, looked up, variant I53A D56K)
E3 ubiquitin-protein ligase …: B2 E3 ubiquitin-protein ligase … with I52A, D55K
B5: R91E: ligase-deficient RING1 point mutant, E2 binding interface (protein, UniProt Q99496 2-336, looked up, variant R91E)
E3 ubiquitin-protein ligase …: B2 E3 ubiquitin-protein ligase … with R90E

Experiments:
Format in all cases: cell-based, human
[1] = test system: BAF complex components; test: anti-SMARCA4 (BRG1) IP mass spectrometry (Tables 7A-7C); conditions: Aska-SS cells -/+ shSSX
Experimental: Peptide abundance normalized to SMARCA4 abundance. […] SMARCC1, SS18, GFP, SMARCB1, and TBP levels are shown. […] T indicates 0-40 min timecourse; n=3 experimental replicates at each time point; error bars represent standard deviation.
Nuclear extracts were quantified by Bradford assay and 150-200 μg of protein was incubated with 2 μg of antibody in Buffer EB300 (50 mM Tris pH 7.5, 0.1% NP-40, 1 mM EDTA, 1 mM MgCl2, […] with protease inhibitor (Roche, C756U27), 1 mM DTT and 1 mM phenylmethylsulfonyl fluoride (PMSF)) overnight at 4° C. Each sample was then incubated with Protein G Dynabeads® (Thermo Scientific) for 2-3 hours. Beads were washed three times with Buffer EB300 followed by elution with 20 μL of elution buffer (NuPage™ LDS buffer (2×) (Life Technologies) containing 100 mM DTT and water).

[2] = test system: Barr bodies (inactive X); test: Immunofluorescence, Barr body localization; conditions: RING1A/1B-dKO HEK-293T cells
Experimental: Immunofluorescent images were obtained as previously described (Daou et al. (2011) Pro. Nat. Acad. Sci. U.S.A 108:2747-2752). Following lentiviral infection and/or drug treatment, cells were prepared by fixation in 3% PFA-PBS and then were permeabilized with PBS 0.1% NP40. Following incubation with primary antibodies, the Anti-rabbit Alexa Fluor® 594 and Anti-mouse Alexa Fluor® 488 (Life Technologies) secondary antibodies were used for visualization. Staining with 4′,6-diamidino-2-phenylindole (DAPI) was used to visualize nuclei. Images were acquired using Zeiss Axio Imager Z2 microscope and images were processed using ImageJ program (NIH).

[3] = test system: H2A K119Ub; test: Immunoblot of H2A K119Ub deposition in RING1A/B dKO 293T cells rescued with RING1B variants; conditions: RING1A/1B-dKO HEK-293T cells
Experimental: Detection of proteins by western blot (WB) analysis was achieved using standard protocols with primary antibodies (Table 4). […] The membranes were then blocked in 5% milk and incubated with primary antibody in PBST over night at 4° C. Following incubation with the primary antibody, membranes were washed 3× in PBST, incubated with IRDye® (LI-COR Biosciences) secondary antibodies for 3 hours, washed 3× in PBST with a final PBS wash, and then visualized by the LI-COR Odyssey® Imaging System (LI-COR Biosciences).

Molecule	Aska (shControl)/Aska (shSS18-SSX) LFQ Intensity (Norm to SMARCA4 Rep 1) ([1]; Rep 1)	Aska (shControl)/Aska (shSS18-SSX) LFQ Intensity (Norm to SMARCA4 Rep 2) ([1]; Rep 2)	SS18-SSX / SSX localization after RING1B rescue [2]	H2A ubiquitination [3]
B1	1.339	1.126		
B2			able to completely rescue SSX localization	
B3			little effect on SSX targeting	only partially attenuated H2A ubiquitination
B4			unable to recruit SS18-SSX	
B5			unable to recruit SS18-SSX	
